# Results: article PMC2662490
# Target: FXR1P Nt-KH2–His6 (human)
# Assay: SAXS
substance,measurement,value
FXR1P Nt-KH2–His6 (domain or fragment),stoichiometry N,2
